T1: IkBα (Homo sapiens, UniProt P25963)
T1 sequence (P25963 1-317): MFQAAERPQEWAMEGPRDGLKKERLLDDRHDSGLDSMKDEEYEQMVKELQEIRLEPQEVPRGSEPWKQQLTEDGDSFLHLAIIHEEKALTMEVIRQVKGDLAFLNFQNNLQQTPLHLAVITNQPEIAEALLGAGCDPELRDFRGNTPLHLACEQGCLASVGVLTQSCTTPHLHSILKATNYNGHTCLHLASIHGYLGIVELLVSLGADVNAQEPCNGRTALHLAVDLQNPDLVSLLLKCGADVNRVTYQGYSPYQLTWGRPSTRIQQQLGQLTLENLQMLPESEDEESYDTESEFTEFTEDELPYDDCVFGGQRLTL

T2: top1 (Homo sapiens, UniProt P11387)
T2 sequence (P11387 1-765): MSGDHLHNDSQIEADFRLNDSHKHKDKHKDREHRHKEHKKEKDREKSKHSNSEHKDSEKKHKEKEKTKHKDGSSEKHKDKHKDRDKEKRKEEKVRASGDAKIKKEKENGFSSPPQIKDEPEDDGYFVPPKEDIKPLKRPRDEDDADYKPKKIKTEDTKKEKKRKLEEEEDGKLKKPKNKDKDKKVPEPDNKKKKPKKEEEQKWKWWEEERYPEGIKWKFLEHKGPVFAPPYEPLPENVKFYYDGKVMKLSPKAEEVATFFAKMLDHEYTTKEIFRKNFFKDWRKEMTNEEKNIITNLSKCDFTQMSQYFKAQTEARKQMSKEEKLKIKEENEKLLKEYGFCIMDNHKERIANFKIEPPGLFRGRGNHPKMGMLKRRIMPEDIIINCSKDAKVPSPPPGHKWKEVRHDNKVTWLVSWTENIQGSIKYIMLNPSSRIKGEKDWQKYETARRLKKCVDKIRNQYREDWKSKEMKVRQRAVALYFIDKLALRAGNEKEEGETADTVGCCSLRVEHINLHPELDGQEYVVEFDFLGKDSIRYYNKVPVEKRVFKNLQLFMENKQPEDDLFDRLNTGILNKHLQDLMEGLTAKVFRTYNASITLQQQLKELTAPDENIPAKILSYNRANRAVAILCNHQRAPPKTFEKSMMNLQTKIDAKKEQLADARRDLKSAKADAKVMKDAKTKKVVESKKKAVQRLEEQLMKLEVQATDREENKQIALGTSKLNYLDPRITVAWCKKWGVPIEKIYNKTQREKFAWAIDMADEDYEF


Legend:
[1] = tested on: HeLa cells expressing GFP-topors or GFP-PML; assay: imaging of GFP-topors or GFP-PML in nuclear bodies before and after treatment; format: cell-based, human; settings: 10 μM, thirty minutes
Experimental: Acute promyelocytic leukemia, a type of cancer affecting the blood, is characterized by an abnormal block in the development of stem cells. It has now been discovered that topors localizes in nuclear bodies associated with promyelocytic leukemia (PML) oncogenic domains. In these experiments HeLa cells were immunostained with antibodies recognizing both topors and PML. Separate and merged fluorescent images from a representative cell were analyzed. PML nuclear bodies are nuclear depot sites, which are disrupted in cells from patients with promyelocytic leukemia with t (15;17) . Topors relocalized to the nucleoplasm after DNA damage. […] In these experiments, HeLa cells expressing GFP-topors or GFP-PML were imaged before and after treatment with 0.1% DMSO, 10 μM DRB, 10 μM CPT, or 30 μM cycloheximide for thirty minutes.

[2] = tested on: cervical cancer cell line; assay: overexpression of topors in cancer cell line; format: cell-based
Source text: The topors protein was not detected in lysates from several different tumor cell lines. In this regard, in matched normal and tumor human tissue specimens, the topors protein was detectable only in normal tissues (FIGS. 3 and 4).

[3] = tested on: mammalian cells; assay: SUMO-2 conjugate formation in cells; format: cell-based
Source text: Additionally, it was shown that topors functions as an E3-type ubiquitin ligase an E3-type SUMO ligase for topoisomerase and p53. Thus, topors is a dual function ubiquitin and SUMO ligase. Recombinant topors enhances formation of polyubiquitin conjugates by specific E2 ubiquitin enzymes in vitro, with the RING domain necessary and sufficient for this activity. While topors-induced ubiquitination of bacterially expressed top1 was unable to be detected in vitro, similar assays using Ubc9, SAE1/SAE2, and SUMO-1 indicate that topors stimulates formation of top1-SUMO-1 conjugates by Ubc9. […] Instead, this activity maps to the 536-704 region, which contains a nuclear localization sequence and is within the top1-binding region. Ectopic expression of topors in HeLa cells increases formation of SUMO-2 conjugates.
(§1) Reaction products were analyzed using monoclonal anti-p53 and polyclonal anti-IkBα antibodies.

[4] = target: T1, IkBα; assay: in vitro sumoylation of IkBα; format: biochemical; settings: E1 and Ubc9
Experimental: as §1

[5] = target: T2, top1; assay: in vitro top1 sumoylation with purified components; format: biochemical; settings: purified sumo conjugation components, purified top1 and topors
Experimental: Topors is homologous in the RING domain to proteins implicated in conjugation of ubiquitin and SUMO, such as MDM2 and BRCA1. Previously, it has been shown that topors binds to the N-terminus of top1. […] Topors also redistributes from PML (promyelocytic leukemia) nuclear bodies to a diffuse nuclear localization when exposed to CPT. When incubated with a HeLa cell fraction containing SAE1/SAE2, purified SUMO-1, and purified Ubc9, minimal top1-SUMO conjugates could be detected using Top1 and SUMO antibodies.
Using purified components of the sumo conjugation system as well as purified top1 and topors, top1-SUMO conjugates were detected. Removing any of the sumoylation components or topors abrogated top1 sumoylation.

[6] = tested on: ubiquitin; assay: in vitro ubiquitination reaction with E1, E2 proteins and ubiquitin; format: biochemical; settings: 400 ng E1, 200 ng E2, 3 μg ubiquitin, ~100 ng GST-topors or GST
Experimental: This analysis was carried out using reactions containing 400 ng E1, 200 ng of various E2 proteins, 3 μg of ubiquitin, and either ˜100 ng GST-topors or GST. Reaction products were resolved by SDS-PAGE under reducing conditions. Migration of probable poly-ubiquitin chains was determined. All E2s were active as assessed by thiolester formation.

[7] = target: p53 (Homo sapiens, UniProt P04637); assay: in vitro sumoylation of p53; format: biochemical; settings: E1 and Ubc9
Experimental: as §1

Chain of p53 (P04637 whole entry, species assumed): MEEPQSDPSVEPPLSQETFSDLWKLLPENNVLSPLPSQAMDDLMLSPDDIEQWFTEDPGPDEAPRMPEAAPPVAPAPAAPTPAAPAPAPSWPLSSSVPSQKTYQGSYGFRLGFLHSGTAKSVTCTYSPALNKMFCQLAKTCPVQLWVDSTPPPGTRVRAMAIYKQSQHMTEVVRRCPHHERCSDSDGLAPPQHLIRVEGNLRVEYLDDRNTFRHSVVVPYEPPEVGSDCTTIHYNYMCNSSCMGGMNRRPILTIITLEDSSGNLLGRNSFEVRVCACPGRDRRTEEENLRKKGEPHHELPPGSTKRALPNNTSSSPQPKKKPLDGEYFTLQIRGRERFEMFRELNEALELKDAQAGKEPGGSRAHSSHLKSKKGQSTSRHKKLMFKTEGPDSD

sumoylation of IkBα [4] | top1 sumoylation in vitro [5] | E3 ubiquitin ligase function (poly-ubiquitin chains) [6] | sumoylation of p53 [7] | Molecule | dispersion of topors / PML from nuclear bodies [1] | effect of overexpression on cancer cells [2] | SUMO-2 conjugates [3]
– | – | – | – | OC[C@H]1O[C@@H](n2cnc3cc(Cl)c(Cl)cc32)[C@H](O)[C@@H]1O [DRB] | induce rapid dispersion of topors but not PML from nuclear bodies | – | –
– | – | – | – | CC[C@@]1(O)C(=O)OCc2c1cc1n(c2=O)Cc2cc3ccccc3nc2-1 [CPT, camptothecin] | induce rapid dispersion of topors but not PML from nuclear bodies | – | –
not IkBα | enhances top1 sumoylation in vitro | functions as an E3 ubiquitin ligase | activates sumoylation of p53 | topors: RING protein that binds topoisomerase 1 and p53; dual E3 ubiquitin/SUMO ligase (protein) MGSQPPLGSPLSREEGEAPPPAPASEGRRRSRRVRLRGSCRHRPSFLGCRELAASAPARPAPASSEIMASAAKEFKMDNFSPKAGTSKLQQTVPADASPDSKCPICLDRFDNVSYLDRCLHKFCFRCVQEWSKNKAECPLCKQPFDSIFHSVRAEDDFKEYVLRPSYNGSFVTPDRRFRYRTTLTRERNASVYSPSGPVNRRTTTPPDSGVLFEGLGISTRPRDVEIPQFMRQIAVRRPTTADERSLRKIQEQDIINFRRTLYRAGARVRNIEDGGRYRDISAEFFRRNPACLHRLVPWLKRELTVLFGAHGSLVNIVQHIIMSNVTRYDLESQAFVSDLRPFLLNRTEHFIHEFISFARSPFNMAAFDQHANYDCPAPSYEEGSHSDSSVITISPDEAETQELDINVATVSQAPWDDETPGPSYSSSEQVHVTMSSLLNTSDSSDEELVTGGATSQIQGVQTNDDLNNDSDDSSDNCVIVGFVKPLAERTPELVELSSDSEDLGSYEKMETVKTQEQEQSYSSGDSDVSRCSSPHSVLGKDEQINKGHCDSSTRIKSKKEEKRSTSLSSPRNLNSSVRGDRVYSPYNHRHRKRGRSRSSDSRSQSRSGHDQKNHRKHHGKKRMKSKRSRSRESSRPRGRRDKKRSRTRDSSWSRRSQTLSLSSESTSRSRSRSSDHGKRRSRSRNRDRYYLRNNYGSRYKWEYTYYSRNKDRDGYESSYRRRTLSRAHYSRQSSSPEFRVQSFSERTNARKKNNHSERKYYYYERHRSRSLSSNRSRTASTGTDRVRNEKPGGKRKYKTRHLEGTNEVAQPSREFASKAKDSHYQKSSSKLDGNYKNESDTFSDSRSSDRETKHKRRKRKTRSLSVEIVYEGKATDTTKHHKKKKKKHKKKHKKHHGDNASRSPVVITIDSDSDKDSEVKEDTECDNSGPQDPLQNEFLAPSLEPFETKDVVTIEAEFGVLDKECDIATLSNNLNNANKTVDNIPPLAASVEQTLDVREESTFVSDLENQPSNIVSLQTEPSRQLPSPRTSLMSVCLGRDCDMS | – | cell death | increases SUMO-2 conjugates
